# From paper PMC3510510, “Structural insight of a concentration-dependent mechanism by which YdiV inhibits Escherichia coli flagellum biogenesis and motility” (Nucleic Acids Research, 2012)
# T1: FlhD4C2 complex (E. coli, UniProt P0A8S9 1-116; P0ABY7 1-192)
# T1 construct: FlhD, E. coli, from the whole flhDC operon; FlhC, E. coli, from the whole flhDC operon; also called FlhDC; FlhDC-His; source: E. coli BL21(DE3), co-expression from the whole flhDC operon in pET21b; purified; also co-expressed with YdiV (in lysate); not shown: His-tag, C-terminal, kept; copies: 4 + 2
# T1 sequence 1: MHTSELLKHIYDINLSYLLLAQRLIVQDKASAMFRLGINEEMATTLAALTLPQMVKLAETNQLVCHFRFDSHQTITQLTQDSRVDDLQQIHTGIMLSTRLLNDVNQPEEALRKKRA
# T1 sequence 2: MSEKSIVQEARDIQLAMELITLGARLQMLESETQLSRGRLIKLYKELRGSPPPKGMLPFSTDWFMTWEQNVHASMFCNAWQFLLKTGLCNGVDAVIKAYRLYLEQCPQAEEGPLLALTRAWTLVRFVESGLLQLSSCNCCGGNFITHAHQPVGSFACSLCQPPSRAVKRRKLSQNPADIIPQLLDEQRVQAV
# T2: DCmut-1 (FlhDC complex with FlhC K42E, K45E) (E. coli, UniProt P0A8S9 1-116; P0ABY7 1-192, K42E | K45E)
# T2 construct: FlhD, E. coli; FlhC, E. coli; Lys42 and Lys45 substituted by Glu; Probably carries the C-terminal His-tag on FlhC as the wild-type complex does; the methods say only that mutants were cloned into pGL01; source: E. coli, purified
# T2 sequence 1: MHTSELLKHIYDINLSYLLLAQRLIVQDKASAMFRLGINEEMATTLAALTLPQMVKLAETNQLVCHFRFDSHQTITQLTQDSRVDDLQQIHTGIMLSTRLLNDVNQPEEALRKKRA
# T2 sequence 2: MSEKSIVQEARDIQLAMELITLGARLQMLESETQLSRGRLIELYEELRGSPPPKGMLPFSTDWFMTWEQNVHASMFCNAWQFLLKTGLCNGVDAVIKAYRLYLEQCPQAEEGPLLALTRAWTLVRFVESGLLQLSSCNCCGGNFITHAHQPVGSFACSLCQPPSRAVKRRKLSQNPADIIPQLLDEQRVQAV
# T3: DCmut-2 (FlhDC complex with FlhC R37E, R39E, K42E, K45E) (E. coli, UniProt P0A8S9 1-116; P0ABY7 1-192, R37E | R39E | K42E | K45E)
# T3 construct: FlhD, E. coli; FlhC, E. coli, four substitutions; Probably carries the C-terminal His-tag on FlhC as the wild-type complex does; the methods say only that mutants were cloned into pGL01; source: E. coli, purified
# T3 sequence 1: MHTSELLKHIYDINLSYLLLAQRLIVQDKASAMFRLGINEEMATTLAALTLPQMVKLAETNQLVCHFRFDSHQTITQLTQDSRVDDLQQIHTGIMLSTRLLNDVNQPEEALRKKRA
# T3 sequence 2: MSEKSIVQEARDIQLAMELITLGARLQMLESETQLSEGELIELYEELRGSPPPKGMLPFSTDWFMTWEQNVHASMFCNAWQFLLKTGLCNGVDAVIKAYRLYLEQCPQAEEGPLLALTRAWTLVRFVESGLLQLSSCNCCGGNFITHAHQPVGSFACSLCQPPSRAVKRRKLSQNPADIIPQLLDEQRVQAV
# B1: YdiV (natural protein, E. coli)
# chain: MKIFLENLYHSDCYFLPIRDNQQVLVGVELITHFSSEDGTVRIPTSRVIAQLTEEQHWQLFSEQLELLKSCQHFFIQHKLFAWLNLTPQVATLLLERDNYAGELLKYPFIELLINENYPHLNEGKDNRGLLSLSQVYPLVLGNLGAGNSTMKAVFDGLFTRVMLDKSFIQQQITHRSFEPFIRAIQAQISPCCNCIIAGGIDTAEILAQITPFDFHALQGCLWPAVPINQITTLVQR
# notes: YdiV, E. coli; the ydiV gene was cloned into pET29b and pGL01; His-tag removal by PPase is stated for prey proteins of the pull-down; The crystal of YdiV alone (3TLQ) was phased with Se-Met-YdiV; also called native YdiV; wild-type YdiV; source: E. coli BL21(DE3), purified (Ni2+-NTA, Source-Q, Superdex 200)
# How the values were obtained:
# YdiV = target: B1; assay: pull-down; His-tagged bait immobilised on Ni2+-NTA beads, prey with His-tag removed by PPase; 4°C, 30 min; 25 mM Tris-HCl pH 8.0, 100 mM NaCl; eluted with 250 mM imidazole; SDS-PAGE, Coomassie; conditions: both partners purified
# FlhD4C2 complex [1] = target: T1, FlhD4C2 complex; assay: SEC; YdiV and FlhD4C2 mixed at molar ratios 5:1, 4:1, 3:1, 2:1 or 1:1 for 10 min at room temperature; Superdex 200; fractions on SDS-PAGE; conditions: both partners purified
# FlhD4C2 complex [2] = target: T1, FlhD4C2 complex; assay: cell-based or functional assay
# [3] = target: T2, DCmut-1 (FlhDC complex with FlhC K42E, …); assay: pull-down; His-tagged bait immobilised on Ni2+-NTA beads, prey with His-tag removed by PPase; 4°C, 30 min; 25 mM Tris-HCl pH 8.0, 100 mM NaCl; eluted with 250 mM imidazole; SDS-PAGE, Coomassie; conditions: both partners purified
# [4] = target: T3, DCmut-2 (FlhDC complex with FlhC R37E, …); assay: as above; conditions: both partners purified
binding result (YdiV),Binder,also measured
binds,"FlhD fragment 1–71aa (domain or fragment, E. coli, UniProt P0A8S9 1-71, looked up, FlhD, E. coli, residues 1-71; also called FlhD (1–71aa); source: E. coli, purified recombinant protein) MHTSELLKHIYDINLSYLLLAQRLIVQDKASAMFRLGINEEMATTLAALTLPQMVKLAETNQLVCHFRFDS",
binds,"FlhD fragment 1–98aa (domain or fragment, E. coli, UniProt P0A8S9 1-98, looked up, FlhD, E. coli, residues 1-98; also called FlhD (1–98aa); source: E. coli, purified recombinant protein) MHTSELLKHIYDINLSYLLLAQRLIVQDKASAMFRLGINEEMATTLAALTLPQMVKLAETNQLVCHFRFDSHQTITQLTQDSRVDDLQQIHTGIMLST",
binds,"FlhD-His (natural protein, E. coli, FlhD, E. coli; the flhD gene was cloned into pET29b and pGL01; source: E. coli BL21(DE3): co-expressed with YdiV (in lysate); purified as bait for the pull-down) MHTSELLKHIYDINLSYLLLAQRLIVQDKASAMFRLGINEEMATTLAALTLPQMVKLAETNQLVCHFRFDSHQTITQLTQDSRVDDLQQIHTGIMLSTRLLNDVNQPEEALRKKRA",
,B1,stoichiometry N (FlhD4C2 complex [1]): 4 YdiV per FlhD4C2; EMSA: DNA binding of FlhD4C2 (49-bp flhB promoter) with 5-fold excess of YdiV and at different molar ratios of YdiV:FlhD4C2 (FlhD4C2 complex [2]): > 3 molar ratio YdiV:FlhD4C2; binding result [3]: binds; binding result [4]: binds
binds,"FlhD fragment 1–106aa (domain or fragment, E. coli, UniProt P0A8S9 1-106, looked up, FlhD, E. coli, residues 1-106; also called FlhD (1–106aa); source: E. coli, purified recombinant protein) MHTSELLKHIYDINLSYLLLAQRLIVQDKASAMFRLGINEEMATTLAALTLPQMVKLAETNQLVCHFRFDSHQTITQLTQDSRVDDLQQIHTGIMLSTRLLNDVNQ",
binds,"FlhD fragment 1–82aa (domain or fragment, E. coli, UniProt P0A8S9 1-82, looked up, FlhD, E. coli, residues 1-82; also called FlhD (1–82aa); source: E. coli, purified recombinant protein) MHTSELLKHIYDINLSYLLLAQRLIVQDKASAMFRLGINEEMATTLAALTLPQMVKLAETNQLVCHFRFDSHQTITQLTQDS",
